The record followed here is publication PMC3257359 (Cell research, 2011).

No end group written: not given here. *: point of attachment. Biotin = O=C1N[C@H]2[C@H](CS[C@H]2CCCCC(=O)*)N1

T1: human PPARγ LBD (residues 206-477) (human, UniProt P37231-2 206-477)
T1 sequence: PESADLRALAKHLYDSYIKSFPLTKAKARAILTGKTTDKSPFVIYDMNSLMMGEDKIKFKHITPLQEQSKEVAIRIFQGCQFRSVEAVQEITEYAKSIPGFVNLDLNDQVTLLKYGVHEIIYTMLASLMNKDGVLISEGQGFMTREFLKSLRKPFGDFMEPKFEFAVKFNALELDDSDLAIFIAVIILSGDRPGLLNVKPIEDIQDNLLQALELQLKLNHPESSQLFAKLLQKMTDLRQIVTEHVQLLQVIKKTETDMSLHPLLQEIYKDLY

The target in this assay is T1, human PPARγ LBD (residues 206-477). The experiment in a line: AlphaScreen or HTRF. In general terms: Alpha assays give light when donor and acceptor beads are brought close together.
As to Biotin-SGNLVPDAASKHKQLSELLRGGSG [CBP-1 peptide (coactivator LXXLL motif of CBP), N-terminally biotinylated], the binding result was “binds”.
As for Biotin-QKPTSGPQTPQAQQKSLLQQLLTE, the binding result was “binds”.
Under Biotin-QEPVSPKKKENALLRYLLDKDDTKD stands “binds”.
With Biotin-SPSSHSSLTERHKILHRLLQEGSP, the binding result is reported as “binds”.
